{
  "source": "patent US4701455A",
  "about": "“Biopterin analogs” (Burroughs Wellcome Co., priority 1983, dated 1987)",
  "tested_on": "C[C@H](O)[C@H](O)[C@H]1CNc2nc(N)[nH]c(=O)c2N1",
  "experiment": "purified protein, by the assay type",
  "details": "other: Km of substrate (tyrosine) with the pterin as cofactor",
  "data": [
    {"substance": "Tyrosine hydroxylase (Homo sapiens)", "values": [
      {"measurement": "Km", "value": 16.0, "unit": "µM"}
    ]}
  ]
}
